Data on 18 sequences can be found in a protein production outcome set (Wang et al. 2014).

The nature of this data set: label from the status in PepcDB records.
Regarding “MQTQFQFINDCLIENQPLWRFEPFQSSIQPSLPWQETHPQLCQWLESLSPSQIETLKADPDLALDEISVFLPDLPSLLRHTQLESMALDGLALERGLDSGIPGRKLEQITAMGEAAIQSHQGEEWLEWCSGKGYLGRILTTQTNQPVTSFEYQQALCDSGQQAANEHHWKMTFIQGDAFDPQTKAVFKPTQHAVALHACGDLHVRLMEYGSEAGIAAMTISPCCYHLIQSETYQALSQSVRASELILSKHELRIPLQQTVTGGERVRRHRQQEMVFRLGFDLLTREILGVDEYQPVPSIRKSQLSDGFEALCLWVAKEKGIEINQAIDFAEFEKRAIKRFWHMERMSLVQLVFQRPLEIWLALDKVLYLEERGYRVRLAEFCPKSVTPRNILICAYKN”, the protein production entry is given as “failed”.

On to “MQTQVLFEHPLNEKMRTWLRIEFLIQQLTVNLPIVDHAGALHFFRNVSELLDVFERGEVRTELLKELDRQQRKLQTWIGVPGVDQSRIEALIQQLKAAGSVLISAPRIGQFLREDRLIALVRQRLSIPGGCCSFDLPTLHIWLHLPQAQRDCQVETWIASLNPLTQALTMVLDLIRQSAPFRKQTSLNGFYQDNGGDADLLRLNLSLDSQLYPQISGHKSRFAIRFMPLDTENGQVPERLDFELACC”, for which the protein production entry is given as “not failed”.

Turning to “MQTWQQLYSPLGSLGLSALAAVIPIVFFFLALAVFRLKGHVAGSITLALSILVAIFAFQMPADMALAAAGYGFAYGLWPIAWIIVAAVFLYKLTVKSGQFEIIRSSVLSITDDQRLQVLLIGFCFGAFLEGAAGFGAPVAITAALLVGLGFNPLYAAGLCLIANTAPVAFGALGIPIIVAGQVTGIDAFKIGAMTGRQLPLLSLFVPFWLVFMMDGMRGVKETWPAALVAGLSFAVTQYFTSNFIGPELPDITSALASLISLTLFLKIWQPKRTAGAQIAGATSSAAITASAGGFGQPRQTQASPYSLGQIFKAWSPFLILTVLVTIWTLKPFKAMFAAGGSMYGWVFNFAIPHLDQLVIKMAPIVTTPTAIPAVFKLDPISATGTAIFFSALISMLLLKIDFKTGLTTLKETFYELRWPILSIGMVLAFAFVTNYSGMSSTMALVLAATGAAFPFFSPFLGWLGVFLTGSDTSSNALFSSLQATTAHQIGVNDTLLVAANTSGGVTGKMISPQSIAVACAATGLVGKESDLFRFTLKHSLFFATIVGLITLAQAYWFTGMLVH”, the protein production result is on record as “failed”.

Regarding “MQVEREENRKEVYEMKKETTGSKKVENGMEQEILNGQQPHWEKVFSNTCSRFGDEPSYPARKAAAIFEKEGKKKILELGGGQGRDTCFFASRGFSVHSLDYTESGTKAMKEKAEESGFGKYVTALRHDARNPLPFEAETFDACYSHMLYCMALTTDELEFLCKEIKRVLKPGGINIYTARHTGDAHYGTGTHRGEDMYEIAGGFIVHFFSREKVENLAKEYGSFELEEFEEGELPRKLYMVTMRK”, the protein production result is recorded as “failed”.

“MQVPKVTLNNGVEMPILGYGVFQIPPEKTEECVYEAIKVGYRLIDTAASYMNEEGVGRAIKRAIDEGIVRREELFVTTKLWVSDVGYESTKKAFEKSLKKLQLEYIDLYLIHQPFGDVHCAWKAMEEMYKDGLVRAIGVSNFYPDRLMDLMVHHEIVPAVNQIEIHPFYQRQEEIEFMRNYNIQPEAWGPFAEGRKNIFQNGVLRSIAEKYGKTVAQVILRWLTQKGIVAIPKTVRRERMKENISIFDFELTQEDMEKIATLDEGQSAFFSHRDPEVVKWICSLKR”: the protein production entry is listed as “not failed”.

For the sequence “MQVQELVGIVPWNFIATICNLFIQVYLIKRFLFKPVNEMLEKRRAKADAEIQDAVKAKEEAEVMKAEYEKNMQEAKEKANDIVLTAQKTAAVQSEEMLKEASSQVTAMKEKAEKDIAQERRKAVNEIKGEIGGMAVEIAGKVIEREINEEDHTKLINDFIENVGEAS”, the protein production result was “not failed”.

On to “MQVRAVFFARLRREVGLEELTLDVPDGADVRAVAEHLEQERGVSLRGCMVAVNETYASPEHLLREGDEVAFLPPVAGGAPEDEADADTHCRVTADPLSLSEADAFLVKPEYGAQAYFMGTVRSPNQGQVVEYIDYEAFAPMAEKVMREAAALARERHGELRVWIEHRTGRLTPAVASIVIGVASPHRRPALEACDFLIEHLKIELPIWKHEADGRGEHWVKGTTGHDTL”, for which the protein production entry was “failed”.

As to “MQWPPPWRRSPLVSATPPPGPTRGLLCPRRVSEAGDSSTEGARTGHSHYVTPAESAMEGRSQPLPSLRPASPTNAPAHGRGSDCTAKEPPLANVCRQNYGAAQDPVELAGRRSASHVTGSSLGKAEVACGRRWRWAELLADTSWSPAGRATEMKVKMLSRNPDNYVRETKLDLQRVPRNYDPALHPFEVPREYVRALNATKLERVFAKPFLASLDGHRDGVNCLAKHPEKLATVLSGACDGEVRIWNLTQRNCIRTIQAHEGFVRGICTRFCGTSFFTVGDDKTVKQWKMDGPGYGDEEEPLHTILGKTVYTGIDHHWKEAVFATCGQQVDIWDEQRTNPICSMTWGFDSISSVKFNPIETFLLGSCASDRNIVLYDMRQATPLKKVILDMRTNTICWNPMEAFIFTAANEDYNLYTFDMRALDTPVMVHMDHVSAVLDVDYSPTGKEFVSASFDKSIRIFPVDKSRSREVYHTKRMQHVICVKWTSDSKYIMCGSDEMNIRLWKANASEKLGVLTSREKAAKDYNQKLKEKFQHYPHIKRIARHRHLPKSIYSQIQEQRIMKEARRRKEVNRIKHSKPGSVPLVSEKKKHVVAVVK”, the protein production entry is “failed”.

On to “MQYSSFGEKFNRYSGITQLMDDLNDGLRTPGAIMLGGGNPAAIPAMLDYFHNTSAEMLADGSLLNAMTNYDGPQGKDVFVKSLATLLRETYGWNISEKNITLTNGSQSGFFYLFNLFAGKQPDGAHKKILLPLAPEYIGYGDAGIDDDIFVSYRPEIELLDQGLFKYHVDFSELKVDESVAAICVSRPTNPTGNVLTEEEIHKLDQLARDNGVPLIIDNAYGVPFPNIIFEDIEPFWNDNTILCMSLSKLGLPGLRCGIVIANEAVTQALTNMNGIISLAPGSMGPALVQRMIEKGDLLRLSEQVIKPFYRQKAQHAVELLQSAITDPRFRIHKPEGAIFLWLWFDELPITTMELYQRLKARGVLIVPGEYFFIGQPQEWPHAHECLRMNYVQNEQAMEQGIAIIAEEVQKAYQQANV”, for which the protein production entry is given as “failed”.

As to “MRAGSGQCTGAAMDRLTEMEAFAMVVDQGGFTDAARKMGISKSAVSKHVSALEARLGARLLNRTTRRVSPTEIGLAYYDRARRVLTDAGEADALVTSMQTAPSGHLRLSVATDFGVALLAPILAEFLLDYPDITVTMVLNNRSVELISEGFDMAIRVGDLEDSSLRARKLTETTRRMIASPGYLQRHGRPMKIDDLTDHRLLYHSTQAHGNVWRLLSPSGEPRQVRAPGFLTVNDGHSLLKAAVSGLGIAHLPEFLFAEAMRAGLVEEVLPDLPVETLGIHAIYPAGRFTQPKVRAFIDFLVRRFLEKGPIGN”, the protein production entry was “failed”.

“MRAIAIVLARSSSKRIKNKNIIDFFNKPMLAYPIEVALNSKLFEKVFISSDSMEYVNLAKNYGASFLNLRPKILADDRATTLEVMAYHMEELELKDEDIACCLYGASALLQEKHLKNAFETLNKNQNTDYVFTCSPFSASPYRSFSLENGVQMAFKEHSNTRTQDLKTLYHDAGLLYMGKAQAFKEMRPIFSQNSIALELSPLEVQDIAHFRRFRISQAQIQPFEKRMPVKILCDCFLTSGLGHVRRCEKILSFIEKLGVEASLYLHKQNNISAFLEGVGGNDFLITDSYCLNSKDFYLLKEKAKSLMVIEDTEHAKGFYPKNTKILNFTLNALKHYHHLSKDYQYYLGVGFYPVDARFIYDRPINTENKEVLITLGGSEQKTLKEIVKILENKNVNLHIISPYTPKNPPKNTHYYSPLNPLEFSSLMKSCACAISAAGQTLYELALSQTPSLILPIASNQIIQSKEFESLGIFKQTSLKTLAKDFENLQIQKNQAWAKNLVFGDKLEGALREFLEI”: the protein production result is recorded as “failed”.

As to “MRALALICVVWVCWRESCARHGTEDSSESGLRYAYTLVVDGTANTRRCFGTGHVDGEAFVGYSNNKTHGIGRWVNASHVEEENKEFVRQCKELQAELDKMQNNSKVIGVKTVQLDVGCTSKIEKHYAYDGNETEDDTATSASERDRDCQKKLTEYRKLVLASAVSPQLEVERRSSGREGGMRLRCFARDYYPADLEIRWWKDDGGGGALPQTSKQHHDPLPSGNGLYQKHIDVYVDGGLEHVYSCRVKGIATGLELQIVRWKGYARGAGNSVVLLALFIPASVMAAVVVGSVLIRKKSKEQRKTRRRFGRRSGHEPKRPSYQVKRRAEPPCDLPMTIWFRGDNVMSTQVEACPAYAVTMSARELSDAWSNGDGPIVTVPDPSI”, the protein production entry is listed as “not failed”.

With “MRAPLSTYRRPQRTDFVTPTGGPFFAKQDKALNTIDLKMAHDLKLRGYRVKVAVVDEGVRSDHPLLNVEKKYGGDYMADGTRTYPDPKRQGRHGTSVALVLAGQDTDTYRGGVAPNADLYSANIGTRAGHVSDEAAFHAWNDLLGHGIKIFNNSFATEGPEGEQRVKEDRNEYHSAANKQNTYIGRLDRLVRDGALLIFAAGNGRPSGRAYSEVGSVGRTPRVEPHLQRGLIVVTAVDENGRLETWANRCGQAQQWCLAAPSTAYLPGLDKDNPDSIHVEQGTSLSAPLVTGAAVLVQDRFRWMDNDNLRTTLLTTAQDKGPYGVDPQYGWGVLDVGRAVQGPAQFAFGDFVARVTDTSTFGLEHHHHHH”, the protein production result is “failed”.

For “MRASQSAIFRRIDPFAILSFTIPLAVYLLTLAPSVTFFDSGEFITAIHSLGTAHSPGYPLFVNYGKPFTWLPFGNIAFRVNIATAVSASAACFAVYFLTHYLLKREELVPDLRFSDTFARLCGLAAALAFAFSARLWLQSNHDKPYPLVAFMTAMVFYLLVTWRERYDEGEMRPSHIYLGAFICGLATGAHQTIVLMLPAYAWLILSKNWRLAARVKELALTVAFGLMGFAIQLHMPIRAMRNPLLNWGDPRTLDLFLWNFLRKGYPVEPPDRNLALAWQQLSAFNLPREFTWVGLVLLLVGIGAFFTRRRDEIIAYLLAIVCSLLVIVGYFNTPGDLIFLTEEFFTPIYLLSAVFIGLGLFTLLRLALRNNPVEKLRTVPIKLMAGLLLLVLPSAICAMNYYENDQHENYVAFDYATNTLRSLSPGAVLFTWGDSGAFPLWYLQGVERMREDLDLLHTPHLVFDWYLDAFPHLFGRSVLRTMPERRQSSEVALKLAVAEQIVSRPVFIDFSTRYSLPFAEYGLKQRGICYQLINDGGSVLRPPDLAVWRLYASRGYTSQMGFRDLDTGKAILIYASCRMEAGEILLRMGYRQQGAEELSAAAAIAPELRAQVEQVLAAYGAR”, the protein production result is given as “failed”.

With “MRASTLLIIAGMFIVSLYALIEVSFYSSQVTVHRPDVRAPVIEVPSINLTETINNRSVFYGVYHEPMSYPPGNRTVILFGHRTLYGSPFLHLDKLRAGDSVYLNWPGVGFAEYRVNRSFIVPASYQMPVNQGAKLFLITCHPLGSTRERLIVECHLEGIRPYQRNVRVDNPKSYYSIPIILGFLSAGLLVTRFYPVEEDRRFLLAAVIGLTVFLVLGYLFPIPPEFISDKLMEFNNILGI”, the protein production entry was “failed”.

With “MRATEDHTIFDRGVGQRDQLQRLWTPYRMNYLAEAPVKRDPNSSASPAQPFTEIPQLSDEEGLVVARGKLVYAVLNLYPYNPGHLMVVPYRRVSELEDLTDLESAELMAFTQKAIRVIKNVSRPHGFNVGLNLGTSAGGSLAEHLHVHVVPRWGGDANFITIIGGSKLEHHHHHH”, the protein production entry was “failed”.

For “MRDALHVTADDADATDDAIPDSRETGVTGVVLAGGLSTRLGHDKAVIRLHGEQGPDLLVRTAALLEPLVDEVWISCRPGRCVTGPYLRIYDEVQGLGPFGGVMTALRAAQGPVLVLSCDLPFMERTLLERLLERRGARHPEALMTTFRQEETGFIESLVAVYEYACLPFFEDALTDGVHKLSRVIPAERREDIVYTQNEALPFFNVNYPADLEMARRIIGALLEHHHHHH”, the protein production entry is recorded as “failed”.

On to “MRDALLGALDAGAVCVNVDLAHAGQQAKLEPDTPYGDALGVGAGRNWAHVNSIAYDAKDDSIILSSRHQGIVKIGRDKQVKWILAPSKGWNKQLASKLLKPVDDHGKPLTCDENGKCKDTDFDFTYTQHTAWLSSKGTLTVFDNGDGRGLEQPALPTMKYSRFVEYKIDEKKGTVQQVWEYGKERGYDFYSPITSVVEYQKDRDTMFGFGGSINLFDVGKPTVGKLNEIDYKTKEVKVEIDVLSDKPNQTHYRALLVHPTQMFKLEHHHHHH”, for which the protein production entry is reported as “not failed”.
